Literature values, collected in patent publication US5397694A, “Protease inhibitor” (Merck Patent GmbH, priority 1989, dated 1995).

B1: Eglin C: Eglin variant with tyrosine where Eglin B has histidine (protein, UniProt P01051 1-70, looked up)
Eglin C: TEFGSELKSFPEVVGKTVDQAREYFTLHYPQYDVYFLPEGSPVTLDLRYNRVRVFYNPGTNVVNHVPHVG
isoelectric point (pI), published report: 6.45
